This passage reports Kd results from article PMC10786891, “Massively parallel profiling of RNA-targeting CRISPR-Cas13d”.

First the molecules themselves.
B1: target 1 A9U,G13U (mixed)
RNA 1: CACCCGUGCAAAAAUGCAGGGGUCUAAAACUGAGCGGAUAACCUCUCUAUGG
RNA 2: GGGAAUGGAUCCACAUCUACGAAUUCGUACCAUAGAGAUGUUUUCCGCUCACCGAGAUCGGAAGAGCACACGU
B2: target 1 G13C,A14C (mixed)
RNA 1: CACCCGUGCAAAAAUGCAGGGGUCUAAAACUGAGCGGAUAACCUCUCUAUGG
RNA 2: GGGAAUGGAUCCACAUCUACGAAUUCGUACCAUAGAGCCGUUAUCCGCUCACCGAGAUCGGAAGAGCACACGU
B3: target 2 MT 5'PFS CUC 3'PFS CUA (mixed)
RNA 1: CACCCGUGCAAAAUUGCAGGGGUCUAAAACCUUCUCCAAAUUGUUUCAUCCU
RNA 2: GGGAAUGGAUCCACAUCUACGAAUUCCUCAGGAUGAAACAAUUUGGAGAAGCUAAGAUCGGAAGAGCACACGU
B4: target 2 MT 5'PFS GCA 3'PFS AAG (mixed)
RNA 1: CACCCGUGCAAAAUUGCAGGGGUCUAAAACCUUCUCCAAAUUGUUUCAUCCU
RNA 2: GGGAAUGGAUCCACAUCUACGAAUUCGCAAGGAUGAAACAAUUUGGAGAAGAAGAGAUCGGAAGAGCACACGU
B5: target 2 MT 5'PFS ACG 3'PFS CAC (mixed)
RNA 1: CACCCGUGCAAAAUUGCAGGGGUCUAAAACCUUCUCCAAAUUGUUUCAUCCU
RNA 2: GGGAAUGGAUCCACAUCUACGAAUUCACGAGGAUGAAACAAUUUGGAGAAGCACAGAUCGGAAGAGCACACGU
B6: target 2 MT 5'PFS CUG 3'PFS ACC (mixed)
RNA 1: CACCCGUGCAAAAUUGCAGGGGUCUAAAACCUUCUCCAAAUUGUUUCAUCCU
RNA 2: GGGAAUGGAUCCACAUCUACGAAUUCCUGAGGAUGAAACAAUUUGGAGAAGACCAGAUCGGAAGAGCACACGU
B7: target 2 MT 5'PFS GCG 3'PFS AGG (mixed)
RNA 1: CACCCGUGCAAAAUUGCAGGGGUCUAAAACCUUCUCCAAAUUGUUUCAUCCU
RNA 2: GGGAAUGGAUCCACAUCUACGAAUUCGCGAGGAUGAAACAAUUUGGAGAAGAGGAGAUCGGAAGAGCACACGU
B8: target 2 MT 5'PFS CGC 3'PFS ACG (mixed)
RNA 1: CACCCGUGCAAAAUUGCAGGGGUCUAAAACCUUCUCCAAAUUGUUUCAUCCU
RNA 2: GGGAAUGGAUCCACAUCUACGAAUUCCGCAGGAUGAAACAAUUUGGAGAAGACGAGAUCGGAAGAGCACACGU
B9: target 2 MT 5'PFS CGC 3'PFS ACC (mixed)
RNA 1: CACCCGUGCAAAAUUGCAGGGGUCUAAAACCUUCUCCAAAUUGUUUCAUCCU
RNA 2: GGGAAUGGAUCCACAUCUACGAAUUCCGCAGGAUGAAACAAUUUGGAGAAGACCAGAUCGGAAGAGCACACGU
B10: target 2 MT 5'PFS GCA 3'PFS AAC (mixed)
RNA 1: CACCCGUGCAAAAUUGCAGGGGUCUAAAACCUUCUCCAAAUUGUUUCAUCCU
RNA 2: GGGAAUGGAUCCACAUCUACGAAUUCGCAAGGAUGAAACAAUUUGGAGAAGAACAGAUCGGAAGAGCACACGU
B11: target 2 MT 5'PFS ACG 3'PFS CAG (mixed)
RNA 1: CACCCGUGCAAAAUUGCAGGGGUCUAAAACCUUCUCCAAAUUGUUUCAUCCU
RNA 2: GGGAAUGGAUCCACAUCUACGAAUUCACGAGGAUGAAACAAUUUGGAGAAGCAGAGAUCGGAAGAGCACACGU
B12: target 2 MT 5'PFS CUG 3'PFS ACA (mixed)
RNA 1: CACCCGUGCAAAAUUGCAGGGGUCUAAAACCUUCUCCAAAUUGUUUCAUCCU
RNA 2: GGGAAUGGAUCCACAUCUACGAAUUCCUGAGGAUGAAACAAUUUGGAGAAGACAAGAUCGGAAGAGCACACGU
B13: target 2 MT 5'PFS CGC 3'PFS ACA (mixed)
RNA 1: CACCCGUGCAAAAUUGCAGGGGUCUAAAACCUUCUCCAAAUUGUUUCAUCCU
RNA 2: GGGAAUGGAUCCACAUCUACGAAUUCCGCAGGAUGAAACAAUUUGGAGAAGACAAGAUCGGAAGAGCACACGU
B14: target 2 MT 5'PFS CUG 3'PFS ACG (mixed)
RNA 1: CACCCGUGCAAAAUUGCAGGGGUCUAAAACCUUCUCCAAAUUGUUUCAUCCU
RNA 2: GGGAAUGGAUCCACAUCUACGAAUUCCUGAGGAUGAAACAAUUUGGAGAAGACGAGAUCGGAAGAGCACACGU
B15: target 2 MT 5'PFS GCG 3'PFS AGA (mixed)
RNA 1: CACCCGUGCAAAAUUGCAGGGGUCUAAAACCUUCUCCAAAUUGUUUCAUCCU
RNA 2: GGGAAUGGAUCCACAUCUACGAAUUCGCGAGGAUGAAACAAUUUGGAGAAGAGAAGAUCGGAAGAGCACACGU
B16: target 2 MT 5'PFS GCG 3'PFS AGU (mixed)
RNA 1: CACCCGUGCAAAAUUGCAGGGGUCUAAAACCUUCUCCAAAUUGUUUCAUCCU
RNA 2: GGGAAUGGAUCCACAUCUACGAAUUCGCGAGGAUGAAACAAUUUGGAGAAGAGUAGAUCGGAAGAGCACACGU
B17: target 2 MT 5'PFS CUG 3'PFS ACU (mixed)
RNA 1: CACCCGUGCAAAAUUGCAGGGGUCUAAAACCUUCUCCAAAUUGUUUCAUCCU
RNA 2: GGGAAUGGAUCCACAUCUACGAAUUCCUGAGGAUGAAACAAUUUGGAGAAGACUAGAUCGGAAGAGCACACGU
B18: target 2 MT 5'PFS GCG 3'PFS AGC (mixed)
RNA 1: CACCCGUGCAAAAUUGCAGGGGUCUAAAACCUUCUCCAAAUUGUUUCAUCCU
RNA 2: GGGAAUGGAUCCACAUCUACGAAUUCGCGAGGAUGAAACAAUUUGGAGAAGAGCAGAUCGGAAGAGCACACGU
B19: target 2 MT 5'PFS ACG 3'PFS CAU (mixed)
RNA 1: CACCCGUGCAAAAUUGCAGGGGUCUAAAACCUUCUCCAAAUUGUUUCAUCCU
RNA 2: GGGAAUGGAUCCACAUCUACGAAUUCACGAGGAUGAAACAAUUUGGAGAAGCAUAGAUCGGAAGAGCACACGU
B20: target 2 MT 5'PFS CUC 3'PFS CUG (mixed)
RNA 1: CACCCGUGCAAAAUUGCAGGGGUCUAAAACCUUCUCCAAAUUGUUUCAUCCU
RNA 2: GGGAAUGGAUCCACAUCUACGAAUUCCUCAGGAUGAAACAAUUUGGAGAAGCUGAGAUCGGAAGAGCACACGU
B21: target 2 MT 5'PFS GCA 3'PFS AAA (mixed)
RNA 1: CACCCGUGCAAAAUUGCAGGGGUCUAAAACCUUCUCCAAAUUGUUUCAUCCU
RNA 2: GGGAAUGGAUCCACAUCUACGAAUUCGCAAGGAUGAAACAAUUUGGAGAAGAAAAGAUCGGAAGAGCACACGU
B22: target 2 MT 5'PFS CGC 3'PFS ACU (mixed)
RNA 1: CACCCGUGCAAAAUUGCAGGGGUCUAAAACCUUCUCCAAAUUGUUUCAUCCU
RNA 2: GGGAAUGGAUCCACAUCUACGAAUUCCGCAGGAUGAAACAAUUUGGAGAAGACUAGAUCGGAAGAGCACACGU
B23: target 2 MT 5'PFS UCG 3'PFS ACG (mixed)
RNA 1: CACCCGUGCAAAAUUGCAGGGGUCUAAAACCUUCUCCAAAUUGUUUCAUCCU
RNA 2: GGGAAUGGAUCCACAUCUACGAAUUCUCGAGGAUGAAACAAUUUGGAGAAGACGAGAUCGGAAGAGCACACGU

This data set concerns the target T1, EsCas13d, nuclease-dead (Eubacterium siraeum, UniProt B0MS50, R295A;H300A;R849A;H854A).
T1 sequence: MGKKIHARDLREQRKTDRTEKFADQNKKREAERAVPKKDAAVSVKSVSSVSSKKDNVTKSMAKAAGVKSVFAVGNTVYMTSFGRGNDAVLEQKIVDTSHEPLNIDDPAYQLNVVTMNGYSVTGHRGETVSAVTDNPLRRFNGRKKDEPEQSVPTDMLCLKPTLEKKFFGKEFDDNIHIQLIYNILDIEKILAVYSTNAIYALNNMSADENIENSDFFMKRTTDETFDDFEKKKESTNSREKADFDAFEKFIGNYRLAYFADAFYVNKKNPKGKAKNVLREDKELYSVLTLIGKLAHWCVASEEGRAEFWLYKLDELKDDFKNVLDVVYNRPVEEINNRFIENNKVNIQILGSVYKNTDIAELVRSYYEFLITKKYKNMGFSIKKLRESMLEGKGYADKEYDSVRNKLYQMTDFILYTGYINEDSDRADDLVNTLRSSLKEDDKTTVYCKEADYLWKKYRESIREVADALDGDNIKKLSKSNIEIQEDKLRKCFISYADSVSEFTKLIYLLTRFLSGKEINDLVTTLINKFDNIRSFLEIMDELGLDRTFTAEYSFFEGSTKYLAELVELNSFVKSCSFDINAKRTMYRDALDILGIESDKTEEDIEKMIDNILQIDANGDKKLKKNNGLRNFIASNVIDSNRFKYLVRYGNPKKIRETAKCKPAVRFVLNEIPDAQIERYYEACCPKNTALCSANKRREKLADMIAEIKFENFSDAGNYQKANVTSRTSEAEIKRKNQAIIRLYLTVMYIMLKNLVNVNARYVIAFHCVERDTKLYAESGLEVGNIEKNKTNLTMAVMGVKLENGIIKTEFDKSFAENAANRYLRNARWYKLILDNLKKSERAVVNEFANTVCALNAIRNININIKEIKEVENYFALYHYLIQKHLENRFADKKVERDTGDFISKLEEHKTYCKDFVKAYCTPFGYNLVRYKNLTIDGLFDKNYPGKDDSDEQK
Kind of data set: crRNA (strand 1, pre-loaded); Mg2+; 40 mM Tris-HCl pH 7.5, 150 mM NaCl, 6 mM MgCl2, 1 mM DTT, 0.1% Tween-20, 0.2 mg/ml BSA; 25 C; 10 min per concentration, then washed. The settings on record: tags: His6-TwinStrep-SUMO cleaved; N-terminal SNAP kept (SNAP-Surface 488); label: 3' end held by stalled T7 RNA polymerase.
Broadly, the Kd is a measure of binding affinity in units of concentration. Lower therefore signals a tighter complex. For B1, the affinity, expressed as Kd, was 53 ± 8 nM.
The same measure for B2: 50 ± 9 nM.
The result for B3 reads 2.02 ± 0.29 nM; that for B4, 7.8 ± 1.2 nM; that for B5, 5.7 ± 1.2 nM.
B6 displayed a Kd of 5.6 ± 1.2 nM.
The result for B7 reads 16.2 ± 2.8 nM; that for B8, 5.2 ± 0.7 nM.
Consider B9, for which the equilibrium dissociation constant (Kd) was 18 ± 4 nM.
In turn, B10 yielded a Kd of 11.9 ± 3.3 nM.
The result for B11 reads 7.7 ± 1.4 nM.
The result for B12 reads 3.9 ± 0.5 nM; that for B13, 11 ± 5 nM.
The same measure for B14: 2.89 ± 0.25 nM; for B15: 7.6 ± 1 nM; for B16: 11.6 ± 2.1 nM.
On to B17, for which the dissociation constant (Kd) turned out to be 4.5 ± 0.8 nM.
The result for B18 reads 9.7 ± 1.6 nM; that for B19, 5.5 ± 0.6 nM; that for B20, 4.4 ± 1.5 nM.
The molecule B21 had a Kd of 6.5 ± 2 nM.
B22: the Kd was found to be 6 ± 0.8 nM.
The result for B23 reads 45 ± 9 nM.
